System: T1, IFI16 (Homo sapiens), Q16666-2
T1 sequence: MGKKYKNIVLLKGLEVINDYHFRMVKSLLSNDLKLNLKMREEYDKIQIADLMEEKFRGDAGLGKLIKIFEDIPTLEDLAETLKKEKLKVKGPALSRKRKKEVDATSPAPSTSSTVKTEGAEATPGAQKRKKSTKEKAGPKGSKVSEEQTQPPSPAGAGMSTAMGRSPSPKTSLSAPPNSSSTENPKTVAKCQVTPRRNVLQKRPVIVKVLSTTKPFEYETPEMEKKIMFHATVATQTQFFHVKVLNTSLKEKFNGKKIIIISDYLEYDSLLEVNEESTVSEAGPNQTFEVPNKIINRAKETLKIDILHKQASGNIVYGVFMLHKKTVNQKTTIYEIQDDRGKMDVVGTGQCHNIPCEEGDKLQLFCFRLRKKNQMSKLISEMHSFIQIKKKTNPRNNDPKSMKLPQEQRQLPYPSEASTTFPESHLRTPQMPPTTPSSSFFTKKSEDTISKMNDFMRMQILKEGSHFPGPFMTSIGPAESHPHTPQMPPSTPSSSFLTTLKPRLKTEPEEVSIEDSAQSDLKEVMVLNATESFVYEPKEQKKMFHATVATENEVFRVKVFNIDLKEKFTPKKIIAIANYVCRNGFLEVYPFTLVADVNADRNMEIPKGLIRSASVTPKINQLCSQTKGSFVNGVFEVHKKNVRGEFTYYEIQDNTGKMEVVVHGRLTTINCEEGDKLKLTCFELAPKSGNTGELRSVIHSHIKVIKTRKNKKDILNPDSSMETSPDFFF
Assay: EMSA
Details: EMSA: 5 mM Tris-HCl pH 7.0, 1 mM EDTA, 50 mM KCl, 0.01% Triton X-100, 4 C, 15 min; gel 0.33x TBE (native PAGE with 50 mM KCl)

## GGGTTAGGGTTAGGGTTAGGGTTAGGGTTAGGGTTAGGGTTAGGGTTAGGG (double strand) [DS HTEL]
  binding signal (% bound at protein:DNA 4:1): 50

## TTGGGGCGCTTATGGGGAGGGTGGGGAGGGTGGGGAAGGTGGGGAGGAGACT (double strand) [DS NHEIII]
  binding signal (% bound at protein:DNA 4:1): 50
